Tests used:
[1] = system: Saccharomyces cerevisiae; assay: protein stability index of tFT-peptide fusion in wild type (PSI (0-1 scale)); higher = more stable (slower turnover); conditions: genetic background: wild type
[2] = system: Saccharomyces cerevisiae; assay: protein stability index of tFT-peptide fusion in deletion strain of DOA10 (PSI (0-1 scale)); higher = more stable (slower turnover)
Description: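 MPS profiling in S. cerevisiae of two library types built from selected 12-aa C-degron peptides (IN1, IN2, LN1, LN3, VN2, R1-R5, W1-W3, Atg1 and Rpa12 C-termini): saturation mutagenesis libraries and C-terminal +1 capping libraries (13 aa). Each peptide is fused to the C-terminus of a sfGFP-mCherry timer, after a GGGS linker. Cells are FACS-sorted into 8 mCherry/sfGFP bins and sequenced. PSI runs from 0 (unstable) to 1 (stable), measured once in wild type and in the das1Δ or doa10Δ background.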
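Throughout, for protein stability index of tFT-peptide fusion in deletion strain of DOA10: PSI per variant is the weighted mean of its sequencing read distribution over the sorted stability bins, counting only variants with over 10 reads summed across bins.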
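Throughout, for protein stability index of tFT-peptide fusion in wild type: PSI derived as read-weighted mean over the 8 sorting bins, only variants exceeding 10 total reads kept, mCherry placed adjacent to the peptide and sfGFP distal.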

| Sequence | protein stability index [1] | protein stability index [2] |
| --- | --- | --- |
| AITLPMCPRLLR | 0.648 | 0.675 |
| AITLPMDPLLLR | 0.627 | 0.681 |
| AITLPMRPLLLR | 0.176 | 0.637 |
| AITLPMYPLLLR | 0.161 | 0.651 |
| AITLPPCPLLLR | 0.232 | 0.673 |
| AITYPMCPLLLR | 0.287 | 0.655 |
| AQTLPMCPLLLR | 0.394 | 0.686 |
| CCVSLPILLFFR | 0.0702 | 0.606 |
| CLVHLPILLFFR | 0.0596 | 0.56 |
| CLVLLPILLFFR | 0.0939 | 0.442 |
| CLVSLFILLFFR | 0.228 | 0.433 |
| CLVSLKILLFFR | 0.189 | 0.282 |
| CLVSLPICLFFR | 0.0838 | 0.593 |
| CLVSLPIILFFR | 0.0727 | 0.575 |
| CLVSLPILAFFR | 0.151 | 0.613 |
| CLVSLPILLFDR | 0.554 | 0.65 |
| CLVSLPILLFFP | 0.495 | 0.588 |
| CLVSLPILLFFY | 0.232 | 0.435 |
| CLVSLPILLLFR | 0.0579 | 0.579 |
| CLVSLPILLYFR | 0.0564 | 0.597 |
| CLVSLPILQFFR | 0.623 | 0.66 |
| CLVSLPTLLFFR | 0.0585 | 0.663 |
| CLVSLPVLLFFR | 0.0558 | 0.614 |

| Sequence | protein stability index [1] | protein stability index [2] |
| --- | --- | --- |
| CLVSLQILLFFR | 0.164 | 0.264 |
| CLVSLVILLFFR | 0.258 | 0.34 |
| CLVSMPILLFFR | 0.0734 | 0.601 |
| CLVSYPILLFFR | 0.0543 | 0.603 |
| CVTRLDAIYFRI | 0.194 | 0.71 |
| DITLPMCPLLLR | 0.39 | 0.655 |
| FLYMCSVGCWFR | 0.351 | 0.563 |
| GLCMCSVGCWFR | 0.256 | 0.608 |
| GLNMCSVGCWFR | 0.264 | 0.673 |
| GLYMCFVGCWFR | 0.233 | 0.402 |
| GLYMCSEGCWFR | 0.619 | 0.706 |
| GLYMCSRGCWFR | 0.436 | 0.677 |
| GLYMCSTGCWFR | 0.37 | 0.684 |
| GLYMCSVGCHFR | 0.621 | 0.663 |
| GLYMCSVGCMFR | 0.524 | 0.636 |
| GLYMCSVGCWFL | 0.506 | 0.598 |
| GLYMCSVGCWFRK | 0.435 | 0.648 |
| GLYMCSVGCWFRT | 0.227 | 0.554 |
| GLYMCSVGCWIR | 0.179 | 0.402 |
| GLYMCSVGCWLR | 0.212 | 0.537 |
| GLYMCSVGCWWR | 0.355 | 0.634 |
| GLYMCSVGKWFR | 0.637 | 0.674 |
| GLYMCSVRCWFR | 0.382 | 0.442 |

| Sequence | protein stability index [1] | protein stability index [2] |
| --- | --- | --- |
| GLYMCSVTCWFR | 0.265 | 0.327 |
| GLYMDSVGCWFR | 0.521 | 0.727 |
| GLYMMSVGCWFR | 0.26 | 0.604 |
| GLYMVSVGCWFR | 0.176 | 0.38 |
| GLYMWSVGCWFR | 0.278 | 0.601 |
| GRYMCSVGCWFR | 0.385 | 0.669 |
| ISLRVLLPLYFR | 0.286 | 0.588 |
| KSLRVLLPLYFR | 0.288 | 0.654 |
| QITLPMCPLLLR | 0.288 | 0.645 |
| QVTRLDAIYFRI | 0.346 | 0.693 |
| RLVSLPILLFFR | 0.0755 | 0.614 |
| RPLRVLLPLYFR | 0.355 | 0.666 |
| RRTRLDAIYFRI | 0.422 | 0.599 |
| RSLRILLPLYFR | 0.253 | 0.655 |
| RSLRVDLPLYFR | 0.203 | 0.69 |
| RSLRVLEPLYFR | 0.412 | 0.69 |
| RSLRVLLPLDFR | 0.666 | 0.723 |
| RSLRVLLPLIFR | 0.375 | 0.671 |
| RSLRVLLPLYFRE | 0.356 | 0.703 |
| RSLRVLLPLYFRP | 0.291 | 0.638 |
| RSLRVLLPLYHR | 0.626 | 0.682 |
| RSLRVLLPLYLR | 0.29 | 0.671 |
| RSLRVLLPLYSR | 0.609 | 0.642 |

| Sequence | protein stability index [1] | protein stability index [2] |
| --- | --- | --- |
| RSLRVLLPTYFR | 0.569 | 0.664 |
| RSLVVLLPLYFR | 0.257 | 0.634 |
| RVERLDAIYFRI | 0.491 | 0.682 |
| RVLRLDAIYFRI | 0.376 | 0.666 |
| RVSRLDAIYFRI | 0.445 | 0.671 |
| RVTFLDAIYFRI | 0.438 | 0.621 |
| RVTGLDAIYFRI | 0.534 | 0.683 |
| RVTRLDAIFFRI | 0.364 | 0.712 |
| RVTRLDAIPFRI | 0.69 | 0.724 |
| RVTRLDAIQFRI | 0.658 | 0.698 |
| RVTRLDAIYARI | 0.684 | 0.724 |
| RVTRLDAIYFLI | 0.0749 | 0.119 |
| RVTRLDAIYFRF | 0.415 | 0.718 |
| RVTRLDAIYFRIK | 0.615 | 0.694 |
| RVTRLDAIYFRIS | 0.206 | 0.271 |
| RVTRLDAIYFRIT | 0.16 | 0.243 |
| RVTRLDAIYFSI | 0.629 | 0.713 |
| RVTRLDAIYNRI | 0.697 | 0.738 |
| RVTRLDMIYFRI | 0.236 | 0.658 |
| RVTRLDQIYFRI | 0.403 | 0.696 |

— the supplement of paper PMC10724198
